Laboratory results as given in patent US8710180B2, “VEGF-specific capture agents, compositions, and methods of using and making” (Indi Molecular, Inc., priority 2011, dated 2014).

How the values were obtained:
VEGF165 [1] = molecular target: T1, VEGF165 (Homo sapiens, UniProt P15692); assay: direct solid-phase ELISA, binding of capture agents to VEGF165; conditions: immobilized VEGF165; KD estimated as concentration at half-maximal fluorescent emission
T1 construct: purchased Abcam ab56620
T1 sequence (P15692 27-191 isoform P15692-4): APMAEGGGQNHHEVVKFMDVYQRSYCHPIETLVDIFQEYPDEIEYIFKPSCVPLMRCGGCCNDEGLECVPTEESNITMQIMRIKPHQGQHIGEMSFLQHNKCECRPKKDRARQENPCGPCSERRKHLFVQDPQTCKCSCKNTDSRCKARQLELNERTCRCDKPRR
Method: The equilibrium dissociation constant (KD) for the capture agents may be estimated as the concentration corresponding to half-maximal fluorescent emission. Assaying multiple capture agents in parallel permits relative and absolute comparison of in vitro binding.
After washing each well with PBS (3×), the plate was filled with 5% non-fat dry milk in TBS (25 mM Tris, 150 mM NaCl, pH 7.25) containing 0.1% (v/v) Triton X-100 and blocked for 2 hours at 25° C. […] After washing all microwells with TBS/0.1%(v/v) Triton X-100 (5×), 0.1 μg/mL Streptavidin Poly-HRP conjugate (Pierce, Ill.) in TBS/0.1%(v/v) Triton X-100 was incubated for 30 minutes at 25° C. The plate was aspirated and washed with TBS/0.1% (v/v) Triton X-100 (5×), followed by TBS (5×), and then developed by adding QuantaRed^TM Enhanced Chemifluorescent HRP Substrate. Using an excitation wavelength of 535 nm, fluorescent emission at 595 nm was recorded by Beckman Coulter DTX880 photometer (Brea, Calif.) as a function of capture agent concentration. The titration curves were fit using a four-parameter regression curve fitting program (Origin 8.5, Northampton, Mass.).

VEGF165 [2] = molecular target: T1, VEGF165; assay: pull-down (immunoprecipitation) of VEGF165 from spiked buffer or human serum, Western blot and silver stain; type: binding; conditions: VEGF165-spiked buffer (B) vs 25% human serum (S)
Method: A pull-down assay was used to assess capture agent specificity for VEGF by measuring the ability of the capture agents to purify VEGF165 from buffer or complex media such as human serum. Capture agents were immobilized on streptavidin-functionalized magnetic beads, and the resultant resins were panned with VEGF165-spiked serum or buffer.
Pull-down detection of VEGF165 was performed using a modified immunoprecipitation technique that incorporated capture agents rather than antibody. […] A vehicle-only control (0.1% DMSO, v/v) accompanied each sample.
Proteins were captured by BSA-blocked Dynabeads® M-280 Streptavidin (Invitrogen, #112-05D) under rotation at 4° C. for 4 hours (100 μL of 50% slurry per pull-down condition). Beads were separated from the serum or buffer matrix by application of the DynaMag™-Spin magnet (Invitrogen, #123-20D), and captured proteins were eluted from the beads in 30 μL of reducing Laemmli buffer. Eluted samples were subjected to 12% SDS-PAGE separation at 200 V for 30 minutes in 1×TGS (25 mM Tris, 192 mM Glycine, 0.1% SDS (w/v), pH 8.3). Samples were subsequently electrophoretically transferred to a nitrocellulose membrane in 25 mM Tris, 192 mM Glycine, pH 8.3, containing 20% (v/v) methanol (Bio-Rad Laboratories, Hercules, Calif.) at 100 V for 45 minutes. […]

[3] = molecular target: T2, VEGF165 binding to Avastin® Fab (Homo sapiens, UniProt P15692); assay: competitive ELISA, inhibition of VEGF165 binding to Avastin Fab; conditions: 10 nM biotinylated VEGF165, Avastin Fab coated plate
T2 construct: biotin (chemical labelling)
T2 sequence (P15692 27-191 isoform P15692-4): T1 sequence (P15692 27-191 isoform P15692-4)
Method: Using an excitation wavelength of 535 nm, fluorescent emission at 595 nm was recorded by Beckman Coulter DTX880 photometer (Brea, Calif.) as a function of capture agent concentration. The titration curves were fit using a four-parameter regression curve fitting program (Origin 8.5, Northampton, Mass.). Concentrations of peptides corresponding to the midpoint absorbance of the titration curve were calculated and used as the IC50 values.

Kd (VEGF165 [1]): ~15 nM | IC50 [3]: 400 nM
Substance: X-VEPNCDIHVMWEWECFERL-Tz4-lfrew-Tz4-eeird [Triligand 2]
capture of VEGF in buffer vs. serum (VEGF165 [2]): captures equivalent amounts of VEGF in buffer and serum
